Experimental data from the supplement of paper PMC10065799, “High-throughput profiling of sequence recognition by tyrosine kinases and SH2 domains using bacterial peptide display” (eLife, 2023).

Assays:
c-Src SH2 = experiment: SH2 binding enrichment of the phosphorylated peptide, bacterial display (enrichment ratio); higher = better substrate or ligand; peptides without Tyr show the background
SHP2-C SH2 = experiment: as above
Grb2 SH2 = Grb2 SH2 (UniProt P62993); experiment: as above
Fes = Fes (UniProt P07332); experiment: phosphorylation enrichment, bacterial display (enrichment ratio); higher = better substrate or ligand; peptides without Tyr show the background
Jak2 = Jak2 (UniProt O60674); experiment: as above
EPHB1 = EPHB1 (UniProt P54762); experiment: as above
MERTK = MERTK (UniProt Q12866); experiment: as above
FGFR3 = FGFR3 (UniProt P22607); experiment: as above
Fyn = Fyn (UniProt P06241); experiment: as above
Hck = Hck (UniProt P08631); experiment: as above
EPHB2 = EPHB2 (UniProt P29323); experiment: as above
c-Abl (mouse) = experiment: as above
Fer (mouse) = experiment: as above
c-Src = experiment: as above
FGFR1 = FGFR1 (UniProt P11362); experiment: as above
AncSZ = experiment: as above
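For SH2 binding enrichment of the phosphorylated peptide, bacterial display in this document: peptide library displayed on the E. coli surface as eCPX fusions, selected cells deep-sequenced, score is each peptide's frequency after selection divided by its frequency in the input.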
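For phosphorylation enrichment, bacterial display in this document: 11-residue human phosphosite peptides and single-mutation variants displayed on the E. coli surface, counted by deep sequencing, each peptide's frequency after selection divided by its frequency in the unselected input library; frequency after pTyr selection over input frequency; kinase dosed for 20-30% of maximal phosphorylation in three min.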

Sequence of FGFR1 (P11362 whole entry, looked up): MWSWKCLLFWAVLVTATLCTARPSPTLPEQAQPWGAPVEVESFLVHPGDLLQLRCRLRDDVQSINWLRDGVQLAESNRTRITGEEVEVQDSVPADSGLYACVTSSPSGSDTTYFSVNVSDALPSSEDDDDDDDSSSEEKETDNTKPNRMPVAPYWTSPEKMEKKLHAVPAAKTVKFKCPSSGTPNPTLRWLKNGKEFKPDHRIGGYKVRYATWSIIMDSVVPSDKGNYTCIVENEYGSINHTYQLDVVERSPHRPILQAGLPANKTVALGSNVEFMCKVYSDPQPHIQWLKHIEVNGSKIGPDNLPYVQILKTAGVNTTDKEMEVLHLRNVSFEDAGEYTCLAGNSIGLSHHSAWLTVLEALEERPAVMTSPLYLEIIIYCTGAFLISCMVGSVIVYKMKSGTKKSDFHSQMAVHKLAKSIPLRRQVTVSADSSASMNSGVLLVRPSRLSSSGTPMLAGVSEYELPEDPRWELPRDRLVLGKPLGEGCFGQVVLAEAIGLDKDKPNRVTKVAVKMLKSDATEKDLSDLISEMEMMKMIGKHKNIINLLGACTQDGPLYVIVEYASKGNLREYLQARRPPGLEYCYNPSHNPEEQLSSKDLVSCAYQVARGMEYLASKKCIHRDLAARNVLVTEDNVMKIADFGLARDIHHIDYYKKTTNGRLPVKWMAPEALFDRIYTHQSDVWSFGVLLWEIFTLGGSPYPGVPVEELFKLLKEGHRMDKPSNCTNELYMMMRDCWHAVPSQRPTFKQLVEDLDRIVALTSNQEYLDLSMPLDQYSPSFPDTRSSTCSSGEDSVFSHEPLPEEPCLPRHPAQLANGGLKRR
Sequence of EPHB2 (P29323 whole entry, looked up): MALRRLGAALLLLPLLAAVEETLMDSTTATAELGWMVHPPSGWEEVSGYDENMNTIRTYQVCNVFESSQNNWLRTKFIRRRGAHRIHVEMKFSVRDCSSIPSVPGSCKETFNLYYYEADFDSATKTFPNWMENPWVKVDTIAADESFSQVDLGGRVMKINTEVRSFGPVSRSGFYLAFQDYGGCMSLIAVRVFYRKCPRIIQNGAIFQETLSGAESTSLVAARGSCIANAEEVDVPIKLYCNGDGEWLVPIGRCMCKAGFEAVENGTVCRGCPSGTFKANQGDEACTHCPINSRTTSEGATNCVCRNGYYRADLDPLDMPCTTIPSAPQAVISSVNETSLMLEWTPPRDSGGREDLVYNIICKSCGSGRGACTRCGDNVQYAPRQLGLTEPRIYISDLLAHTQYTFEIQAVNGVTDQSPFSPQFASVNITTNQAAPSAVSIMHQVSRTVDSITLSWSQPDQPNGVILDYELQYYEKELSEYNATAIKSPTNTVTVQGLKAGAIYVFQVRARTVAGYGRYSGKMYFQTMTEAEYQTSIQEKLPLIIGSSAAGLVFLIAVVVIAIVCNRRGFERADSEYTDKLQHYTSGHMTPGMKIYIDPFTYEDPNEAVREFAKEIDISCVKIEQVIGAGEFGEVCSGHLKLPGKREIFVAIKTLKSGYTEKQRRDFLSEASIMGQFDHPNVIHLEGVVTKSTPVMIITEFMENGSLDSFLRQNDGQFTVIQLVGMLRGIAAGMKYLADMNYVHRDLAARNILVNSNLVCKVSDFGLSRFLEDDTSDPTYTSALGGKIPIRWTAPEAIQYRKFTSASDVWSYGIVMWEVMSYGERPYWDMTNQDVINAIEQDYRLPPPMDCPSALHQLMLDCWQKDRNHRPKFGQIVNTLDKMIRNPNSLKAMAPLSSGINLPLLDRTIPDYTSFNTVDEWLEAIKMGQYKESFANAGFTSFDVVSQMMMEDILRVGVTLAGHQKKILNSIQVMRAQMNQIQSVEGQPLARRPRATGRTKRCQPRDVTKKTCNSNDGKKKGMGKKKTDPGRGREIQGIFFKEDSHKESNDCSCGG
Sequence of Grb2 SH2 (P62993 whole entry, looked up): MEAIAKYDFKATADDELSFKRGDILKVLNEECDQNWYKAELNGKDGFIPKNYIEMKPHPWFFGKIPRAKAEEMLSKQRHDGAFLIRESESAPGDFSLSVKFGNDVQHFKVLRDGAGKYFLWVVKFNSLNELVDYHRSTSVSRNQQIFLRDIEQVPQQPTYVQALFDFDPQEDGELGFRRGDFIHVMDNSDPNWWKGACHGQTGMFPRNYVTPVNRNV
Sequence of Jak2 (O60674 whole entry, looked up): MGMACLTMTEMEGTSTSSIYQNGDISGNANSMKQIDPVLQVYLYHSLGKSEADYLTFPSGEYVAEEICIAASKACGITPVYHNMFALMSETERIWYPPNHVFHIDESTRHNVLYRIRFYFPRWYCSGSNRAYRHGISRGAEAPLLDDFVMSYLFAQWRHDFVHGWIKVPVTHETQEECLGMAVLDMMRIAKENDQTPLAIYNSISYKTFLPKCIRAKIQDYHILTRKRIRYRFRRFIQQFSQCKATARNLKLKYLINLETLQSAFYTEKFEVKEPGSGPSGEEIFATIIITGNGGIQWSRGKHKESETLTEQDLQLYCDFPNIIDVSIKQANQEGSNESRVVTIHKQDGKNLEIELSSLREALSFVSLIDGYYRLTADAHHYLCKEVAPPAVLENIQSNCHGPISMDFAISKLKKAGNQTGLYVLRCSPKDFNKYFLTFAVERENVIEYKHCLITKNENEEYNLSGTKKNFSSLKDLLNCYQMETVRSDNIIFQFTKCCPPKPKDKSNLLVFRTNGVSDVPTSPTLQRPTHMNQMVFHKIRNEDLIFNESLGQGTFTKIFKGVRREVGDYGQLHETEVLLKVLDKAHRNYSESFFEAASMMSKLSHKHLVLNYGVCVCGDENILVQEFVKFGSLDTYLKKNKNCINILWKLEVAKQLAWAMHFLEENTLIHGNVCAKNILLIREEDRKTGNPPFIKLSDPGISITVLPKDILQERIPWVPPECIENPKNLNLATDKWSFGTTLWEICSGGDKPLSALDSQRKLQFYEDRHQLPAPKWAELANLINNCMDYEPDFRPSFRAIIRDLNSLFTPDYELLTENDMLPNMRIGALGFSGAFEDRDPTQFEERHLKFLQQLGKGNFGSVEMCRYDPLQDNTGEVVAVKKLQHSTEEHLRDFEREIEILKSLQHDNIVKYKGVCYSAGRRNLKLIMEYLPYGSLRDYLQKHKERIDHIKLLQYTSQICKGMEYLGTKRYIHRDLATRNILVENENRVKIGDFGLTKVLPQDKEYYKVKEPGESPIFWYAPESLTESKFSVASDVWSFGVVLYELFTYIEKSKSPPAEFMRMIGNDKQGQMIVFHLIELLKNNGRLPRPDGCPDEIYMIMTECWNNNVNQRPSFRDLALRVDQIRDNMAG
Sequence of Fes (P07332 whole entry, looked up): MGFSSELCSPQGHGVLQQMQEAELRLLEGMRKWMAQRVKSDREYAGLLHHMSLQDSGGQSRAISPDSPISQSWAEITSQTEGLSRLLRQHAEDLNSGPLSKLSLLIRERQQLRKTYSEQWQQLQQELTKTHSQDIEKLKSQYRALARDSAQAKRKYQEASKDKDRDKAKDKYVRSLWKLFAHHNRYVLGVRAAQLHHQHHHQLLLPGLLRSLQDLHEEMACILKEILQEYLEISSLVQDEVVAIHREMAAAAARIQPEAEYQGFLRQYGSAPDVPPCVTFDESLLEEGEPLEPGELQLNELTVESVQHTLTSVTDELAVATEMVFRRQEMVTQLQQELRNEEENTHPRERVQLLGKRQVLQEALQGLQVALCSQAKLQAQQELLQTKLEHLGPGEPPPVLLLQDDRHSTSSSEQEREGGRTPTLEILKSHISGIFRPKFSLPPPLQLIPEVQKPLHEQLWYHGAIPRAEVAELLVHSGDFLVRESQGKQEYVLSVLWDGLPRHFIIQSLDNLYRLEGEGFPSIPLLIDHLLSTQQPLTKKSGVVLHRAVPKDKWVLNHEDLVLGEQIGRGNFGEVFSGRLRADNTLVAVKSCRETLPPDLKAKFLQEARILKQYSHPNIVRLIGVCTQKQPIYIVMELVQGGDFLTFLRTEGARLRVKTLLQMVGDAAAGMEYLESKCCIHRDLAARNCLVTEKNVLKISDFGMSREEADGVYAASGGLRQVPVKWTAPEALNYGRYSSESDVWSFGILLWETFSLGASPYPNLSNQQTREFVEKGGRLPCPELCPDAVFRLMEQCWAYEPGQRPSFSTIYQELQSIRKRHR
Sequence of FGFR3 (P22607 whole entry, looked up): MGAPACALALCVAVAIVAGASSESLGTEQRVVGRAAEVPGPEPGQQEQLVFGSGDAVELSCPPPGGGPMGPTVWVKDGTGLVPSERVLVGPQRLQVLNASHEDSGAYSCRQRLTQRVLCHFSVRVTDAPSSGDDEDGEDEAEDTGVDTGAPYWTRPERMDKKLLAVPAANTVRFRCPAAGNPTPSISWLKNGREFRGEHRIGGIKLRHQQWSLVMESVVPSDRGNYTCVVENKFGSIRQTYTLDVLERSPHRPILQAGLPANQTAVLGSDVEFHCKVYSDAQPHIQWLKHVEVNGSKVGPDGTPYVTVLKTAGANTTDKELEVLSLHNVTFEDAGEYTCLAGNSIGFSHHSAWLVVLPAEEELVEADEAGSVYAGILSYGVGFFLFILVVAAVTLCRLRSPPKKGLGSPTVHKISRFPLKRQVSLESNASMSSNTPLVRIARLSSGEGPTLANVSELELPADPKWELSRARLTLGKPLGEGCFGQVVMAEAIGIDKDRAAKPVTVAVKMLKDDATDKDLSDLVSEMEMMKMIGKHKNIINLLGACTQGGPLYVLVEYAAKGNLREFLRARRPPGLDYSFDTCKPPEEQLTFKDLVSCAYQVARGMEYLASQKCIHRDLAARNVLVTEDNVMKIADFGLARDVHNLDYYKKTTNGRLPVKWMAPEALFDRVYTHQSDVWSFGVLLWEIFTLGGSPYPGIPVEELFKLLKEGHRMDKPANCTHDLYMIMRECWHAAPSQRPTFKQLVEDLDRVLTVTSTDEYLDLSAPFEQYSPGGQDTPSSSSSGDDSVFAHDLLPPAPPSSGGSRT

Sequence	SH2 binding enrichment (c-Src SH2)	SH2 binding enrichment (SHP2-C SH2)	SH2 binding enrichment (Grb2 SH2)	phosphorylation enrichment (Fes)	phosphorylation enrichment (Jak2)	phosphorylation enrichment (EPHB1)	phosphorylation enrichment (MERTK)	phosphorylation enrichment (FGFR3)	phosphorylation enrichment (Fyn)	phosphorylation enrichment (Hck)	phosphorylation enrichment (EPHB2)	phosphorylation enrichment (c-Abl (mouse))	phosphorylation enrichment (Fer (mouse))	phosphorylation enrichment (c-Src)	phosphorylation enrichment (FGFR1)	phosphorylation enrichment (AncSZ)
ALKWGYTVKGI [OAT_Y158_R154L]	0.625	0.845	0.872	1.24	1.01	0.447	0.304	0.72	0.519	0.341	0.547	0.659	0.445	0.31	0.426	1.13
ALLVFYAATIA [SLC20A2_Y187_P184L]	0.633	0.969	0.803	1.13	1.04	0.648	0.429	0.672	0.44	0.513	0.565	0.871	0.501	0.455	0.445	0.934
AMIADYMFWLG [SPATA16_Y290]	0.806	1.17	1.16	1.31	3.71	7.43	2.52	10.8	0.727	1.49	15.2	1.24	2.01	1.3	12.2	2.24
ANVIRYFPTQA [SLC25A4_Y81]	0.64	0.673	1.09	0.648	0.61	0.42	0.546	0.492	0.585	0.558	0.502	0.541	0.547	0.674	0.524	0.78
ANVKWYRSGRE	0.368	0.46	0.739	0.841	0.585	0.401	0.474	0.886	0.43	0.412	0.425	0.587	0.402	0.512	0.46	0.875
APGDAYGDAGF [SYP_Y250_YF]	0.469	0.545	0.714	0.905	0.8	0.514	0.426	0.521	0.494	0.566	0.548	0.565	0.491	0.464	0.484	0.938
APGNAYGDAGF [SYP_Y250_D248N_YF]	0.469	0.639	0.883	0.504	0.52	0.351	0.348	0.412	0.339	0.433	0.313	0.443	0.369	0.322	0.373	0.527
AQMAMYFWEMG [TRPM4_Y577]	0.908	1.43	1.49	1.45	1.37	0.995	2.67	3.09	1.1	1.36	0.914	1.11	0.682	2.62	3.25	1.38
AQVDTYCRHNY [HLA-DRB1_Y107_A103Q]	0.485	0.707	1.05	0.866	0.764	0.536	0.447	0.679	0.549	0.523	0.47	0.693	0.517	0.369	0.512	0.752
ARMTNYGLPRF [TSPAN12_Y138_YF]	0.505	1.33	0.887	0.636	0.503	0.424	0.511	0.501	0.401	0.413	0.542	0.496	0.409	0.519	0.42	0.547
ASKEPYYVRCI [MYO1D_Y585]	0.481	0.391	0.702	1.17	1.21	0.877	0.618	0.813	0.521	0.464	0.802	1.19	0.557	0.595	0.686	1.35
ASPKSYPSQKH [CAP2_Y316_T311A]	0.385	0.638	0.635	0.511	0.464	0.358	0.356	0.406	0.374	0.333	0.276	0.484	0.323	0.366	0.356	0.426
ASTDYNKRGDF [PDHA1_Y243_Y243N]	0.446	0.512	0.954	0.599	0.468	0.348	0.405	0.402	0.456	0.332	0.474	0.469	0.378	0.47	0.421	0.502
ASYGPYTRVQS [FOXL2_Y258]	2.89	6.64	0.86	0.623	0.539	0.415	0.376	0.427	0.673	0.793	0.583	0.464	0.438	0.559	0.422	0.551
ATAKGYEPDAS [OTC_Y223_P220A]	0.494	0.598	0.836	0.784	0.684	0.523	0.416	0.549	0.441	0.483	0.523	0.598	0.473	0.461	0.481	0.883
ATDLAYYLVRE [ASL_Y375_K380E]	1.58	3.3	1.08	0.909	2.38	0.675	1.23	6.9	0.929	1.01	0.476	0.527	0.43	1.46	8.49	1.21
ATVLNYLPKCI [A2M_Y817]	0.535	0.736	0.899	0.987	0.858	0.662	0.392	0.649	0.437	0.599	0.542	0.714	0.438	0.385	0.519	0.747

Sequence	SH2 binding enrichment (c-Src SH2)	SH2 binding enrichment (SHP2-C SH2)	SH2 binding enrichment (Grb2 SH2)	phosphorylation enrichment (Fes)	phosphorylation enrichment (Jak2)	phosphorylation enrichment (EPHB1)	phosphorylation enrichment (MERTK)	phosphorylation enrichment (FGFR3)	phosphorylation enrichment (Fyn)	phosphorylation enrichment (Hck)	phosphorylation enrichment (EPHB2)	phosphorylation enrichment (c-Abl (mouse))	phosphorylation enrichment (Fer (mouse))	phosphorylation enrichment (c-Src)	phosphorylation enrichment (FGFR1)	phosphorylation enrichment (AncSZ)
AVNNFYAAKKT [CCDC178_Y422_D420N]	0.518	0.745	0.965	0.58	0.566	0.373	0.475	0.402	0.372	0.428	0.352	0.542	0.369	0.463	0.52	0.708
AVPSLYASGRT [ACTA1_Y145_L142P]	0.415	0.643	0.818	0.57	0.523	0.452	0.473	0.434	0.393	1.74	0.433	0.538	0.451	0.451	0.405	0.65
AVSHRYDLGGL [QPRT_Y162_A158V]	0.6	0.76	0.849	0.527	0.467	0.403	0.379	0.42	0.337	0.415	0.524	0.379	0.344	0.385	0.347	0.515
CKLFQYFLDHL [ATRX_Y1849_YF]	1.34	1.41	1.57	1.41	1.3	0.693	0.526	0.873	0.536	0.585	0.605	0.933	0.635	0.524	0.647	1.37
CKSVHYDLVFL [COL22A1_Y37]	0.986	0.613	0.775	1.38	1.19	0.806	1.56	0.866	0.554	0.632	0.739	0.93	9.46	0.528	0.532	1.24
CLLHCYFSQIR [MCM3AP_Y873]	1.53	1.65	1.93	1.32	1.21	0.497	0.401	0.867	0.327	0.413	0.428	0.667	0.391	0.368	0.518	0.856
CNNFICGGCRG [SPINT2_Y163_Y163C]	0.6	0.757	0.968	0.902	0.87	0.466	0.488	0.644	0.519	0.504	0.515	0.697	0.443	0.415	0.5	0.963
CPEARYNRSPI [PTAR1_Y42]	0.522	0.483	0.618	0.859	0.641	0.485	0.433	0.617	0.441	0.492	0.458	0.55	0.435	0.399	0.419	0.699
CPFNLYAAQLS [HGD_Y40_E42A_YF]	0.537	0.811	0.726	1.29	1.02	1.79	1.7	0.816	0.648	1.09	1.24	0.874	0.76	0.961	0.573	1.2
CQASLYPSNHD [LRIG1_Y996_G993A]	0.475	0.694	0.781	1.3	1.01	0.721	0.42	0.792	0.571	0.595	0.624	0.798	0.524	0.449	0.577	1.08
CSHMFYGKQCC [ADAMTS16_Y1211_K1209M]	0.772	0.827	1.14	1.01	0.852	0.587	0.485	0.606	0.653	0.519	0.543	0.713	0.539	0.573	0.464	0.839
CTLLPYYSAPV [DGKE_Y269_R273P]	1.53	0.54	0.71	1.71	1.54	2.04	4.17	1.3	0.792	1.14	2.29	1.65	2.17	1.25	1.43	2.02
CTNIHYNFMCN [TP53_Y234_T231N_YF]	2.21	1.62	1.62	0.974	0.693	0.436	0.423	0.714	0.456	0.426	0.597	0.655	0.481	0.562	0.554	0.8
CTTIHYHFMCN [TP53_Y234_N235H_YF]	1.67	2.26	1.65	1.06	0.902	0.549	0.441	0.729	0.542	0.48	0.637	0.785	0.632	0.488	0.599	1.1
CTTIHYTYMCN [TP53_Y234_N235T]	4.85	6.45	1.52	1.07	1.04	0.608	0.517	0.704	0.496	0.524	0.761	0.672	0.591	0.549	0.724	1.08
CYSSEYHYVGG [CTSC_Y345_Y340C]	2.04	0.943	0.884	1.1	1.77	5.54	4.76	9.68	1.57	2.29	5.91	2.79	1.26	2.02	13	4.45
